Measured values: the supplement of paper PMC10567573

B1: TRAF3IP2 (parent)
chain: APWNYHYHCPGSPDHQVPYGHDYP

Variants of: B1
Assay: protein stability index of a GFP-peptide fusion (GPS, HEK-293T) (PSI 1-6); higher = more stable
Conditions: c terminus: a fixed tail appended
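Also: lentivirally expressed fusions sorted by FACS into six bins by GFP to DsRed ratio, PSI derived from sequencing read proportions per bin multiplied by bin number.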

Question: With APWNYHYHCPGSPDHQVPYPHDYP [G20P] as the variant, how does the protein stability index read?
Answer: 2.26

Question: For APWNYHYHCPGSPDHQVPYNHDYP [G20N], which protein stability index is on record?
Answer: 2.44

Question: For APWNYHYHCPGSPDHQVPYCHDYP [G20C], which protein stability index is on record?
Answer: 2.42

Question: With APWNYHYHCPGSPDHQVPYFHDYP [G20F] as the variant, how does the protein stability index read?
Answer: 1.52

Question: Which protein stability index does the source give for APWNYHYHCPGSPDHQVPYEHDYP [G20E] here?
Answer: 2.48

Question: With APWNYHYHCPGSPDHQVPYVHDYP [G20V] as the variant, how does the protein stability index read?
Answer: 2.13

Question: For APWNYHYHCPGSPDHQVPYMHDYP [G20M], which protein stability index is on record?
Answer: 1.93

Question: With APWNYHYHCPGSPDHQVPYTHDYP [G20T] as the variant, how does the protein stability index read?
Answer: 2.66

Question: With APWNYHYHCPGSPDHQVPYQHDYP [G20Q] as the variant, how does the protein stability index read?
Answer: 2.19

Question: Which protein stability index does the source give for APWNYHYHCPGSPDHQVPYYHDYP [G20Y] here?
Answer: 2.15

Question: Which protein stability index does the source give for APWNYHYHCPGSPDHQVPYKHDYP [G20K] here?
Answer: 2.65

Question: Which protein stability index does the source give for APWNYHYHCPGSPDHQVPYDHDYP [G20D] here?
Answer: 2.95

Question: With APWNYHYHCPGSPDHQVPYRHDYP [G20R] as the variant, how does the protein stability index read?
Answer: 2.45

Question: With APWNYHYHCPGSPDHQVPYIHDYP [G20I] as the variant, how does the protein stability index read?
Answer: 2.74

Question: Which protein stability index does the source give for APWNYHYHCPGSPDHQVPYHHDYP [G20H] here?
Answer: 2.35

Question: With APWNYHYHCPGSPDHQVPYLHDYP [G20L] as the variant, how does the protein stability index read?
Answer: 1.74

Question: For APWNYHYHCPGSPDHQVPYWHDYP [G20W], which protein stability index is on record?
Answer: 1.4

Question: For APWNYHYHCPGSPDHQVPYSHDYP [G20S], which protein stability index is on record?
Answer: 2.28

Question: For APWNYHYHCPGSPDHQVPYAHDYP [G20A], which protein stability index is on record?
Answer: 2.58

Question: Which protein stability index does the source give for APWNYHYHCPGFPDHQVPYGHDYP [S12F] here?
Answer: 1.7

Question: For APWNYHYHCPGWPDHQVPYGHDYP [S12W], which protein stability index is on record?
Answer: 2

Question: For APWNYHYHCPGTPDHQVPYGHDYP [S12T], which protein stability index is on record?
Answer: 2.35

Question: Which protein stability index does the source give for APWNYHYHCPGCPDHQVPYGHDYP [S12C] here?
Answer: 2.75

Question: With APWNYHYHCPGNPDHQVPYGHDYP [S12N] as the variant, how does the protein stability index read?
Answer: 1.6

Question: With APWNYHYHCPGYPDHQVPYGHDYP [S12Y] as the variant, how does the protein stability index read?
Answer: 2.21

Question: Which protein stability index does the source give for APWNYHYHCPGHPDHQVPYGHDYP [S12H] here?
Answer: 2.23

Question: For APWNYHYHCPGQPDHQVPYGHDYP [S12Q], which protein stability index is on record?
Answer: 2.5

Question: Which protein stability index does the source give for APWNYHYHCPGMPDHQVPYGHDYP [S12M] here?
Answer: 1.96

Question: Which protein stability index does the source give for APWNYHYHCPGIPDHQVPYGHDYP [S12I] here?
Answer: 2.27

Question: For APWNYHYHCPGRPDHQVPYGHDYP [S12R], which protein stability index is on record?
Answer: 2.47

Question: Which protein stability index does the source give for APWNYHYHCPGEPDHQVPYGHDYP [S12E] here?
Answer: 2.37

Question: Which protein stability index does the source give for APWNYHYHCPGKPDHQVPYGHDYP [S12K] here?
Answer: 2.21

Question: For APWNYHYHCPGLPDHQVPYGHDYP [S12L], which protein stability index is on record?
Answer: 2.47

Question: With APWNYHYHCPGDPDHQVPYGHDYP [S12D] as the variant, how does the protein stability index read?
Answer: 2.49

Question: With APWNYHYHCPGGPDHQVPYGHDYP [S12G] as the variant, how does the protein stability index read?
Answer: 2.36

Question: With APWNYHYHCPGVPDHQVPYGHDYP [S12V] as the variant, how does the protein stability index read?
Answer: 2.2

Question: For APWNYHYHCPGAPDHQVPYGHDYP [S12A], which protein stability index is on record?
Answer: 2.07

Question: Which protein stability index does the source give for APWNYHYHCPGSPWHQVPYGHDYP [D14W] here?
Answer: 2.32

Question: For APWNYHYHCPGSPYHQVPYGHDYP [D14Y], which protein stability index is on record?
Answer: 1.53

Question: Which protein stability index does the source give for APWNYHYHCPGSPRHQVPYGHDYP [D14R] here?
Answer: 1.91

Question: Which protein stability index does the source give for APWNYHYHCPGSPNHQVPYGHDYP [D14N] here?
Answer: 2.11

Question: With APWNYHYHCPGSPTHQVPYGHDYP [D14T] as the variant, how does the protein stability index read?
Answer: 1.78

Question: Which protein stability index does the source give for APWNYHYHCPGSPFHQVPYGHDYP [D14F] here?
Answer: 2.75

Question: For APWNYHYHCPGSPLHQVPYGHDYP [D14L], which protein stability index is on record?
Answer: 2.6

Question: For APWNYHYHCPGSPQHQVPYGHDYP [D14Q], which protein stability index is on record?
Answer: 2.46

Question: Which protein stability index does the source give for APWNYHYHCPGSPAHQVPYGHDYP [D14A] here?
Answer: 1.93

Question: For APWNYHYHCPGSPKHQVPYGHDYP [D14K], which protein stability index is on record?
Answer: 2

Question: With APWNYHYHCPGSPHHQVPYGHDYP [D14H] as the variant, how does the protein stability index read?
Answer: 2.25

Question: With APWNYHYHCPGSPVHQVPYGHDYP [D14V] as the variant, how does the protein stability index read?
Answer: 2.09

Question: With APWNYHYHCPGSPGHQVPYGHDYP [D14G] as the variant, how does the protein stability index read?
Answer: 2.1

Question: With APWNYHYHCPGSPCHQVPYGHDYP [D14C] as the variant, how does the protein stability index read?
Answer: 2.49

Question: Which protein stability index does the source give for APWNYHYHCPGSPIHQVPYGHDYP [D14I] here?
Answer: 2.08

Question: Which protein stability index does the source give for APWNYHYHCPGSPMHQVPYGHDYP [D14M] here?
Answer: 1.84

Question: Which protein stability index does the source give for APWNYHYHCPGSPEHQVPYGHDYP [D14E] here?
Answer: 2.72

Question: Which protein stability index does the source give for APWNYHYHCPGSPSHQVPYGHDYP [D14S] here?
Answer: 2.26

Question: Which protein stability index does the source give for APWNYHYHCPGSPDHKVPYGHDYP [Q16K] here?
Answer: 2.15

Question: For APWNYHYHCPGSPDHDVPYGHDYP [Q16D], which protein stability index is on record?
Answer: 2.49

Question: With APWNYHYHCPGSPDHTVPYGHDYP [Q16T] as the variant, how does the protein stability index read?
Answer: 2.31

Question: Which protein stability index does the source give for APWNYHYHCPGSPDHIVPYGHDYP [Q16I] here?
Answer: 2.58

Question: With APWNYHYHCPGSPDHSVPYGHDYP [Q16S] as the variant, how does the protein stability index read?
Answer: 3.2

Question: Which protein stability index does the source give for APWNYHYHCPGSPDHEVPYGHDYP [Q16E] here?
Answer: 2.6

Question: Which protein stability index does the source give for APWNYHYHCPGSPDHWVPYGHDYP [Q16W] here?
Answer: 1.68

Question: Which protein stability index does the source give for APWNYHYHCPGSPDHVVPYGHDYP [Q16V] here?
Answer: 2.09

Question: With APWNYHYHCPGSPDHFVPYGHDYP [Q16F] as the variant, how does the protein stability index read?
Answer: 2.19

Question: Which protein stability index does the source give for APWNYHYHCPGSPDHHVPYGHDYP [Q16H] here?
Answer: 2.97

Question: Which protein stability index does the source give for APWNYHYHCPGSPDHLVPYGHDYP [Q16L] here?
Answer: 1.89

Question: With APWNYHYHCPGSPDHPVPYGHDYP [Q16P] as the variant, how does the protein stability index read?
Answer: 2

Question: Which protein stability index does the source give for APWNYHYHCPGSPDHGVPYGHDYP [Q16G] here?
Answer: 1.81

Question: For APWNYHYHCPGSPDHAVPYGHDYP [Q16A], which protein stability index is on record?
Answer: 2.64

Question: For APWNYHYHCPGSPDHMVPYGHDYP [Q16M], which protein stability index is on record?
Answer: 1.94

Question: With APWNYHYHCPGSPDHNVPYGHDYP [Q16N] as the variant, how does the protein stability index read?
Answer: 2.54

Question: With APWNYHYHCPGSPDHRVPYGHDYP [Q16R] as the variant, how does the protein stability index read?
Answer: 2.02

Question: For APWNYHYHCPGSPDHYVPYGHDYP [Q16Y], which protein stability index is on record?
Answer: 2.09

Question: Which protein stability index does the source give for APWNYHYHCPGSPDHCVPYGHDYP [Q16C] here?
Answer: 2.07

Question: With APWNYHYHCPGSPDSQVPYGHDYP [H15S] as the variant, how does the protein stability index read?
Answer: 2.22

Question: Which protein stability index does the source give for APWNYHYHCPGSPDVQVPYGHDYP [H15V] here?
Answer: 2.31

Question: With APWNYHYHCPGSPDPQVPYGHDYP [H15P] as the variant, how does the protein stability index read?
Answer: 2.23

Question: Which protein stability index does the source give for APWNYHYHCPGSPDEQVPYGHDYP [H15E] here?
Answer: 2.43

Question: For APWNYHYHCPGSPDWQVPYGHDYP [H15W], which protein stability index is on record?
Answer: 1.46

Question: For APWNYHYHCPGSPDAQVPYGHDYP [H15A], which protein stability index is on record?
Answer: 2.1

Question: For APWNYHYHCPGSPDDQVPYGHDYP [H15D], which protein stability index is on record?
Answer: 2.56

Question: Which protein stability index does the source give for APWNYHYHCPGSPDTQVPYGHDYP [H15T] here?
Answer: 1.91

Question: For APWNYHYHCPGSPDCQVPYGHDYP [H15C], which protein stability index is on record?
Answer: 1.97

Question: Which protein stability index does the source give for APWNYHYHCPGSPDLQVPYGHDYP [H15L] here?
Answer: 1.95

Question: With APWNYHYHCPGSPDRQVPYGHDYP [H15R] as the variant, how does the protein stability index read?
Answer: 2.1

Question: For APWNYHYHCPGSPDFQVPYGHDYP [H15F], which protein stability index is on record?
Answer: 1.65

Question: For APWNYHYHCPGSPDNQVPYGHDYP [H15N], which protein stability index is on record?
Answer: 2.48

Question: With APWNYHYHCPGSPDGQVPYGHDYP [H15G] as the variant, how does the protein stability index read?
Answer: 2.73

Question: Which protein stability index does the source give for APWNYHYHCPGSPDKQVPYGHDYP [H15K] here?
Answer: 2.65

Question: For APWNYHYHCPGSPDYQVPYGHDYP [H15Y], which protein stability index is on record?
Answer: 2.14

Question: Which protein stability index does the source give for APWNYHYHCPGSPDQQVPYGHDYP [H15Q] here?
Answer: 2.13

Question: For APWNYHYHCPGSPDIQVPYGHDYP [H15I], which protein stability index is on record?
Answer: 2.61

Question: Which protein stability index does the source give for APWNYHYHCPGSPDMQVPYGHDYP [H15M] here?
Answer: 2.02

Question: With APWNYHYHCPNSPDHQVPYGHDYP [G11N] as the variant, how does the protein stability index read?
Answer: 1.87
